Consider 2 molecules from patent US11407840B2, “Antibodies to M(H)DM2/4 and their use in diagnosing and treating cancer” (NomoCan Pharmaceuticals LLC, priority 2017, dated 2022).

“Also recorded” adds a separate entry of the source.

For data set [1], the target named is NMC-P3 peptide (SEQ ID NO:3), amino acids 475-491 of HDM2 (Homo sapiens, UniProt Q00987). Put plainly: Peptide-ELISA, NMC-P3 peptide. It is filed as binding. As to conditions: 5 μg/ml peptide dried on plate; OD 450 nm. How it is done:
(§1) Peptide-ELISA Methodology: 5 μg/ml of NMC-P1, NMC-P2 or NMC-P3 peptide antigen was dried onto a 96-well ELISA plate overnight. Plates were then blocked with 5% BSA in 1× phosphate-buffered saline (PBS) (100 ? /well) for 2 hours at room temperature. Microplate wells were then washed 5 times with 300 ? of ice cold 1× PBS. Appropriate dilutions of monoclonal antibodies NMC-103, NMC-204 or NMC-303 in 1% bovine serum albumin (BSA) in PBS solution were then incubated with their corresponding peptides (NMC-P1, NMC-P2 or NMC-P3, respectively) at room temperature. After 2 hours, wells were washed 5 times with 300 ? ? ice-cold PBS/well and 100 ? secondary antibody (HRP-labeled Goat anti-Mouse F(ab′)2 H&L cross-adsorbed secondary antibody (HRP-GaM F(ab′)2), ThermoFisher, Cat. No. A24524) diluted 1:2500 to 1:5000 in PBS-1% BSA solution were added and the incubation continued at room temperature. After 1 hour, the wells were washed again 5 times with 200 ? of ice-cold PBS and 50 μiL of the TMB Substrate Solution (1-StepTM Ultra TMB-ELISA, ThermoFisher, Cat. No. 34028) were added to each well and color was allowed to develop for 30 minutes at room temperature. The reaction was stopped by addition of 50 μ ? ? of stop solution (ThermoFisher, Cat. No. SSO4) to each well and absorbance of each well was read immediately for optical density (OD) at 450 nm.

The target in data set [2] is NMC-P2 peptide (SEQ ID NO:2), amino acids 15-25 of HDM2 (Homo sapiens, UniProt Q00987). The data set is described as follows: Peptide-ELISA, NMC-P2 peptide. It is filed as binding. To be noted: 5 μg/ml peptide dried on plate; OD 450 nm. How it is done:
as §1

The target of data set [3] is NMC-P1 peptide (SEQ ID NO:1) (Homo sapiens, UniProt Q00987). Put plainly: Peptide antigen binding competition ELISA. To be noted: mAb pre-incubated with peptide 1 hour at room temperature; FIG. 1D. How it is done:
as §1, with “nm. […]” for “nm.”

In data set [4] the test system is mouse pancreatic cancer Panc-2 cells (subcutaneous tumors). The data set is described as follows: Panc-2 syngeneic mouse model of pancreatic cancer. Type of data set: in vivo, mouse (C57BL/6). The procedure: Methodology used (Syngeneic Mouse Models of lung, colon and pancreatic cancer): To investigate the anti-tumor effects of HDM2-specific antibodies on lung, colon and pancreatic tumors in vivo, three well-known syngeneic mouse models of lung, colon and pancreatic cancer were used (Sharma et al, 1999, J. Immunol. 163 (9):5020-5028; McIntyre, 2015, Bioassays 37(8):909-920; Li, et al, 2015, Sci. Rep. 5:7856). Subcutaneous tumors were prepared by implanting either mouse Lewis Lung cancer LL/2 cells (2.5×10^5 cells/mouse), mouse colon cancer MC-38 cells (5×10^5 cells/mouse) or mouse pancreatic cancer Panc-2 cells (2×10^6 cells/mouse) in the right flanks of 8-week-old female C57BL/6 mice (n=6-7). The mice were returned to their respective cages after tumor implantation. From day 7 after tumor implantation, the tumor volumes were measured 2 times/week with a digital caliper. In the case of MC-38 and Panc-2 study, treatment started when the tumors reached an average of 70-80 mm^3. In the case of LL/2 study, tumor cell inoculation and treatment were initiated simultaneously. Mice were micro-chipped and registered following tumor implantation. […] All tumors were injected subcutaneously and all treatments were performed by intraperitoneal injection. Any mouse displaying prolonged adverse clinical signs, or with body weight loss exceeding 15% relative to body weight at day 0, was euthanized.
The efficacy of FIDM2-specific antibody treatment and standard of care chemotherapy was further compared. […] As shown in the tumor volume graph of FIG. 19, when tumors in mice reached approximately 70 mm^3, mice were divided into 4 groups (n=6) that received: A) isotype control mouse IgG1 (2 mg/kg); B) low dose Gemcitabine (25 mg/kg) and nab-Paclitaxel (5 mg/kg); C) NMC-103 (2 mg/kg); or D) a combination of low dose Gemcitabine (25 mg/kg), nab-Paclitaxel (5 mg/kg) and NMC-103 (2 mg/kg). All drugs were injected intraperitoneally 2 times a week for 3 weeks. After receiving the 6th dose on day 19, treatments were stopped for 2 weeks.
The anti-tumor efficacy of NMC-103 and of its combination with pancreatic cancer standard of care treatment Gemcitabine (G) and nab-Paclitaxel (nP) was further evaluated in vivo utilizing the Panc-2 syngeneic mouse model of pancreatic cancer discussed above.
All drugs were injected intraperitoneally 2 times a week for 4 weeks.
The mice were then randomly divided in 2 groups that received a single dose of: A) isotype control mouse IgG1 (10 mg/kg) or B) NMC-103 (10 mg/kg).

The test system of data set [5] is Human pancreatic cancer MIAPaCa-2 cells. Put plainly: Complement-mediated cytotoxicity (CDC) with normal human serum, PI staining. Type of data set: cell-based. As to conditions: antibody 30 μg/ml; NHS 1:10; 2 hours; FIG. 13. How it is done: Methodology used: Cells seeded in 24-well dishes were grown overnight at 37° C. in a humidified atmosphere supplied with 5% CO2-95% air mixture. The following day the cells were thoroughly washed with ice-cold PBS and incubated with HDM2-specific mAb NMC-103 diluted in culture medium containing 1% BSA to a final antibody concentration of 30 μg/ml. After 30 min, NHS was added to the cells at a final concentration of 1:10 in the culture medium with 1%) BSA together with 1% propidium iodide (PI) solution. Cells were then incubated with NHS for 2 hours and images were taken using EVOS FL fluorescent microscope (Life Technologies).

B1: NMC-204: mouse monoclonal antibody, IgG3 isotype, binds NMC-P2 (SEQ ID NO:2); VH SEQ ID NO:38, VL SEQ ID NO:39 (antibody, V domains shown)
VH: EVQLQESGSVLVRPGASVKLSCKASGDTLSGSWMHWAMQRPGQGLEWIGEIHLNRGTTNYNEKFKGKATVTVDTSSSTAYVDLSSLTSEDSAVYYCARSPGFAYWGQGTLVTVSA
VL: GIVMTQAAPSVPVTPGESVSISCRSSKSLLHSNGNSYLYWFLQRPGQSPQLLIYRMSNLASGVPDRFSGSGSGTAFTLRITRVEAEDVGVYYCMQHLEYPFTFGSGTKLEIK
modifications: mAb NMC-204 Heavy Chain Variable Region; mAb NMC-204 Light Chain Variable Region
On to B1, for which, in data set [1], the “binding to NMC-P3 peptide (peptide-ELISA)” value is “did not bind”. In data set [2], the “binding to NMC-P2 peptide (peptide-ELISA)” value is on record as “bound; also recorded: strong binding”.

B2: NMC-103: mouse monoclonal antibody, IgG1 isotype, binds NMC-P1 (SEQ ID NO:1); VH SEQ ID NO:36, VL SEQ ID NO:37 (antibody, V domains shown)
VH: EVQLQESGGGLVQPGGSLRLSCTTSGFTFTHYYMSWVRQPPGKALEWLGFIRNKAKGYTAEYSASVKGRFTISRDNSQSILYLQMNTLRPEDSATYYCARDIGDNWGQGTLVTVSS
VL: DIVMTQAAFSNPVTLGTSASISCRSSKNLLHSNGITYLYWYLQRPGQSPQLLISRVSNLASGVPNRFSGSESGTDFTLRISRVEAEDVGVYFCAQLLELPYTFGGGTKLEIK
modifications: mAb NMC-103 Heavy Chain Variable Region; mAb NMC-103 Light Chain Variable Region
Turning to B2, the “binding to NMC-P2 peptide (peptide-ELISA)” value in data set [2] is “did not bind”. In addition, in data set [3], the “binding of mAb to NMC-P1 peptide on the plate after pre-incubation with NMC-P1 peptide” value was “abolished the binding” and the “binding of mAb to NMC-P1 peptide on the plate after pre-incubation with NMC-P2 or NMC-P3” value is reported as “did not affect the binding”. In addition, in data set [4] (10 mg/kg single dose after 19 days of Gemcitabine 25 mg/kg + nab-Paclitaxel 5 mg/kg, from 438 mm^3, FIG. 30), the “tumor size 6 days after a single i.p. injection” value came to 233 mm^3. Moreover, the “Kaplan Meier survival analysis versus chemotherapy alone or control antibody” value in data set [4] (conditions of FIG. 27, FIG. 28) is “significant survival benefit”. Further, in data set [4] (day 34, NMC-103 10 mg/kg, Gemcitabine 25 mg/kg, nab-Paclitaxel 5 mg/kg i.p. 2 times a week for 4 weeks, surviving mice, NMC-103 group values ascribed to scars and inflammation, FIG. 27), the “average tumor size / measurement” value is recorded as 230 mm^3. For the same molecule, the average tumor volume in data set [4] (day 35, i.p. 2 times a week for 3 weeks (6th dose day 19), then 2 weeks off, antibody 2 mg/kg, Gemcitabine 25 mg/kg, nab-Paclitaxel 5 mg/kg, start approx 70 mm^3, n=6, FIG. 19) is reported as 1523 mm^3. Besides, the “tumor growth during 4 further weeks without drug treatment (to day 62)” value in data set [4] (groups C (n=8) and D (n=7) of FIG. 27) is “no sign of tumor growth beyond the initial scar size”. Besides, the “tumor 10 days after re-challenge with Panc-2 cells” value in data set [4] (re-challenge at day 62, 2×10^6 cells/mouse s.c. left dorsal flank, previously treated mice of FIG. 27, FIG. 29) is “no tumor was observed”. For the same molecule, the “complement-mediated cytotoxicity (nuclear uptake of Propidium Iodide)” value in data set [5] is given as “triggered complement-mediated cytotoxicity”.
